In patent US20220387578A1 (VANDERBILT UNIVERSITY, published 2022):

Assays:
eHead_H1_v3.1_KO1_mC = target: T1, eHead_H1_v3.1_KO1_mC; assay: SPR
T1 chain: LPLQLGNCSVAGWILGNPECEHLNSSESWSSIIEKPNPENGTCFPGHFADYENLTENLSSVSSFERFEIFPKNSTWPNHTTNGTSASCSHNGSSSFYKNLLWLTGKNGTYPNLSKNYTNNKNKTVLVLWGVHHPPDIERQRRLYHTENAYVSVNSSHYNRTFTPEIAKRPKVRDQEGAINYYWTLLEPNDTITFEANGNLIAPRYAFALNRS

eHead_H1_v3.1_KO3_mC = target: T2, eHead_H1_v3.1_KO3_mC; assay: SPR
T2 chain: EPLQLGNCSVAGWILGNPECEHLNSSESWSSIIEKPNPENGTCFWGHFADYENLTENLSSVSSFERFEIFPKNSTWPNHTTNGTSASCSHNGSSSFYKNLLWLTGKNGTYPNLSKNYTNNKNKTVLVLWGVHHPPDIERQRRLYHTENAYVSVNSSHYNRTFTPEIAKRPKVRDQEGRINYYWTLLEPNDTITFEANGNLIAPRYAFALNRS

eHead_H1_g2.10_mC = target: T3, eHead_H1_g2.10_mC; assay: SPR; y axis without title or unit
T3 chain: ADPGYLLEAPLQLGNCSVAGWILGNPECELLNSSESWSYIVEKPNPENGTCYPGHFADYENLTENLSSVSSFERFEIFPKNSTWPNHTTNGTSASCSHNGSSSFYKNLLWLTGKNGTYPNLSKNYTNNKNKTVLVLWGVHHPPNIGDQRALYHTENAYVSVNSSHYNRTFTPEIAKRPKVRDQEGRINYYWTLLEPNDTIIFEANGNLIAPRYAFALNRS

eHead_H1_v3.0_mC = target: T4, eHead_H1_v3.0_mC; assay: SPR; y axis without title or unit
T4 engineered HA head domain: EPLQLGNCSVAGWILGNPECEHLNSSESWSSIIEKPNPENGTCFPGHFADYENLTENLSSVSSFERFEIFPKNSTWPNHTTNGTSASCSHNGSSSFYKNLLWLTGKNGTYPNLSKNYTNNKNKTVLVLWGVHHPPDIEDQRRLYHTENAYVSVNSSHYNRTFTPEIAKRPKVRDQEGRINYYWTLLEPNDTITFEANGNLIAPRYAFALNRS

B1: FluA20 (as used in the SPR experiments of Example 4) (antibody, V domains shown)
VH: QVQLQESGPGLVKPSETLSLTCSVSGVSVTSDIYYWTWIRQPPGKGLEWIGYIFYNGDTNYNPSLKSRVTMSIDTSKNEFSLRLTSVTAADTAVYFCARGTEDLGYCSSGSCPNHWGQGTLVTVSS
VL: DIQMTQSPSSLSASIGDRVTITCRPSQNIRSFLNWFQHKPGKAPKLLIYAASNLQSGVPSRFSGSGSGTEFTLTIRSLQPEDFATYYCQQSYNTPPTFGQGTKVEIK
B1: no binding (eHead_H1_v3.1_KO1_mC); no binding (eHead_H1_v3.1_KO3_mC); binds (eHead_H1_g2.10_mC). B1: binds (eHead_H1_v3.0_mC).
